Test results published in patent publication JP2020002075A.

How the values were obtained:
[1] = molecular target: ポドプラニン (ポドプラニン提示CHO細胞, 種の記載なし); assay: flow cytometry; cells and species not named at this place
[2] = molecular target: ポドプラニン (ポドプラニン提示CHO細胞, 種の記載なし); assay: binding to podoplanin-displaying CHO cells; reference clone 1 scFv

B1: clone 1から作製したdiabody (protein)
chain: EVQLKESGGGLVQSGGSLRLSCAASGFSLTDYGVNWVRQAPGKGLEWVGVIWGGGNTYYNSALKSRFTISKDNSKNTLYLQMNSLRAEDTAVYYCAKHRGAWGQGTLVTVSAGGGGSDIVMTQSPSTLAVSLGEKATINCKSSKSLLNSGNQKNYLIWYQQKPGQPPKLLIYGASTRESGVPDRFSGSVSGTDFTLTISSLQAEDLAVYYCQNDHTYPLTFGQGTKVEIKRTV
Kd [1]: 1.7 nM
fold increase of affinity against the scFv (clone 1) [2]: 100 fold
